Consider 108 sequences from the supplement of paper PMC9942255.

Several values for one entry are separate records, joined by “and”; a condition that tells them apart may be missing. Equal entries are not always repeated.

This series has as its system Bacillus subtilis DB104 (SP-AmyQ fusion secretion). Kind of series: AmyQ secretion efficiency, weighted average sort bin (1 = best secretion, 10 = worst) (bin number (weighted average, 1-10)); higher = lower secretion efficiency. The method, boiled down:
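Designed signal peptides were fused to mature AmyQ and expressed from the amyE locus in B. subtilis DB104, and this library was loaded at about 0.3 cells per ~65 nL alginate bead together with fluorescein-starch. After about 13 h of growth at room temperature and nile red staining, occupied beads were split into 10 equally populated bins by green/red fluorescence ratio using large-particle flow cytometry. Amplicons from every bin were Illumina-sequenced. The secretion score is the average bin number weighted by read frequency and normalised to beads per bin, excluding low-abundance sequences.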

MNFKKTVVSALSISALALSVSGVVSAHEI: the AmyQ secretion efficiency is 2.69. The result for MNFKKTVVSALSISALALTVTSISVSGVASAHEI reads 3.48; that for MNFKKTVVSALSISALALVSVSGVASAHEI, 3.04.

MNFKKTVVSALSISASVSGVASAHEI returned an AmyQ secretion efficiency of 5.11. The result for MNFMFTVVSALSISALALSVSGVASAHEI reads 3.15; that for MNIKKFAKQATVLTFTTALLAGGATQAFAATE, 1.07. Next, MNIKKFAKQATVLTFTTALLAGGATQAFAKET: 3.3; “MNIKKFAKQATVLTFTTALLAGGATQAFAKET [wt_31]”: 3.5. Sequence MNIKKFAKQATVLTFTTALLAGGATQAFAKKR yielded an AmyQ secretion efficiency of 3.43.

The sequence MNILLILLSSALSFGMLISAVPALAAGT yielded an AmyQ secretion efficiency of 2.56.

With MNITIMSFVAVAALSTTAFGAHASAKEI, the AmyQ secretion efficiency is 3.64. The result for MNKFLKSNFRFKRAAALGISLLASSNFIKASND reads 3.29; that for MNKFLKSNFRFLLAAALGISLLASSNFAKASND, 1.03.

In turn, MNKFLKSNFRFLLAAALGISLLASSNFCKASND showed an AmyQ secretion efficiency of 1.73.

For MNKFLKSNFRFLLAAALGISLLASSNFIKASND, the AmyQ secretion efficiency is 4.18 and 4.22 and 2.8.

MNKFLKSNFRFLLAAALGISLLGESNPIKASND displayed an AmyQ secretion efficiency of 1.52. The sequence MNKFLKSNFRFLLAAALGISLLKRSNFIKASND yielded an AmyQ secretion efficiency of 6.59. Next, “MNKFLKSNFRFLLAAALGISLLVLFVIFITFASSNFIKASND”: 4.18.

In the case of MNKFLKSNFRFRRKRKKGISLLASSNFIKASND, the AmyQ secretion efficiency came out at 8.33. MNKFLKSNFRYYTTGALGISLLASSNFIKASND: the AmyQ secretion efficiency turned out to be 7. Next, MNKFLKSNRFLLAAALGISLLASSNFIKASND: 4.66; MNKKKKVVSALSISALALSVSGVASAHEI: 3.7; MNKKYFKRRKCKRFTSALFPTFSSVTAAQG: 6.71. In the case of MNKKYFVLIVCIIFTSALFPTDKKVTAAQG, the AmyQ secretion efficiency worked out at 1.1. MNKKYFVLIVCIIFTSALFPTFAVTVTAAQG displayed an AmyQ secretion efficiency of 1.05. Next, MNKKYFVLIVCIIFTSALFPTFSSATAAQG: 1.33; MNKKYFVLIVCIIFTSALFPTFSSCTAAQG: 1.18; MNKKYFVLIVCIIFTSALFPTFSSITAAQG: 1.16. Next, MNKKYFVLIVCIIFTSALFPTFSSVTAAQR: 1.45. The result for MNKKYFVLIVCIIFTSALFPTFSSVTCAQG reads 1.06.

MNKKYFVLIVCIIFTSALFPTFSSVTHAQG gave an AmyQ secretion efficiency of 1.15. The result for MNKKYFVLIVCIIFTSALFPTFSSVTLAQG reads 2.52; that for MNKKYFVLIVCIIFTSALFPTFSSVTRAQG, 1.05.

As for MNKKYFVLIVCIIFTSALFPTFSSVTTAQG, the AmyQ secretion efficiency is 1.05. Next, MNKKYFVLIVCIIFTSALFPTRRKKKRVTAAQG: 8.37. In the case of MNKKYFVLIVCIIFTSALFPTRRRVTAAQG, the AmyQ secretion efficiency turned out to be 3.61. The result for MNKKYGVLIVCIIFTSALFPTFSSVTAAQG reads 1.02; that for MNKKYQTGQVCIIFTSALFPTFSSVTAAQG, 3.64; that for MNKKYSSKQGCRIFTSALFPTFSSVTAAQG, 4.96. Next, MNKLKRLSMLKKKKASVFIFSSHALAAQY: 6.52; MNKLKRLSMLTVMIASVFIFSASFFTSHALAAQY: 2.06; MNKLKRLSMLTVMIASVFIFSSHALAADD: 4.21.

As to MNKLKRLSMLTVMIASVFIFSSHALAAQE, the AmyQ secretion efficiency stood at 1.11. Next, MNKLKRLSMLTVMIASVFIFSSHALAARR: 2.05; MNKLKRLSMLTVMIASVFIFSSHALGAQY: 1.69; MNKLKRLSMLTVMIASVFIFSSHALMAQY: 7.08. The result for MNKLKRLSMLTVMIASVFIFSSHALVAQY reads 5.99; that for MNKLKRLSMLTVMIASVFIFSSHCLAAQY, 2.86. The result for MNKLKRLSMLTVMIASVFIFSSHILAAQY reads 3.91; that for MNKLKRLSMLTVMIASVFIFSSHQLAAQY, 4.72.

On to MNKLKRLSMLTVMIASVFIFSSHSLAAQY, for which the AmyQ secretion efficiency is 2.4.

MNKLKRLSMLTVMIASVFIFSSHTLAAQY yielded an AmyQ secretion efficiency of 1.95.

Consider MNKLKRLSMLTVMIASVFIFSSHVLAAQY, for which the AmyQ secretion efficiency was 2.99. The result for MNKLKRLSMLTVMIASVFIFSSSALAAQY reads 2.06; that for MNKLKRLSMLTVMIASVFIFSSSHALAAQY, 1.68. With MNKLKRLSMSKSRGYSVFIFSSHALAAQY, the AmyQ secretion efficiency came to 6.58. MNKPTKGFSTLALAAGSTAAAAGGAGTIHAQQP yielded an AmyQ secretion efficiency of 8.05.

For MNKPTKLFILLALAALMFAAAAGGAGTIHAQQP, the AmyQ secretion efficiency was 1.87.

The sequence MNKPTKLFSTLALAAAAAAGGAGTIHAQQP showed an AmyQ secretion efficiency of 1.43. Next, MNKPTKLFSTLALAAGMTAAAAGGAGTCHAQQP: 1.79; MNKPTKLFSTLALAAGMTAAAAGGAGTIHAQRR: 6.62; MNKPTKLFSTLALAAGMTAAAAGGAGTVHAQQP: 2.25. Next, MNKPTKLFSTLALAAGMTDEEEEEAGTIHAQQP: 7.16; MNKPTKLFSTLALAAGMTEDEAGGAGTIHAQQP: 2.79. The result for MNKPTKLFSTLALAAGMTKDKTTSAGTIHAQQP reads 7.85; that for MNKPTKLFSTLALAAGMTKRRAGGAGTIHAQQP, 5.85; that for MNKPTKLFSTLALAAGMTLIAAAAGGAGTIHAQQP, 1.83. MNKPTKLFSTLALAAGMTRRKKRKAGTIHAQQP had an AmyQ secretion efficiency of 6.79. Next, MNKPTKLKKKKALAAGMTAAAAGGAGTIHAQQP: 8.12; MNKPTKLRRKKKRAAGMTAAAAGGAGTIHAQQP: 7.88. The result for MNKPTKQRTKLALAAGMTAAAAGGAGTIHAQQP reads 6.94. The result for MNKRFFGPIILAFILFAGAIAIPS reads 7.33. As to MNLFLIAPMLLSAASLAFFAMSGSAQAAAY, the AmyQ secretion efficiency amounted to 5.75. The result for MNLLFNLSMLTVMIASVFIFSSHALAAQY reads 2.94. The result for MNLNTILLSSALSLGMLVSAAPVLATSS reads 1.5; that for MNLRKIILLSSALSLGMLVSAAPVLATSS, 2.82; that for MNLRKIKKSSALSLGMLVSAAPVLATSS, 5.42. The result for MNLRKILLFIALFLMMLTVSAAPVLATSS reads 1.67; that for MNLRKILLSSALSLGMLEDDAPVLATSS, 2.76; that for MNLRKILLSSALSLGMLEEEDEEVLATSS, 4.45. Take MNLRKILLSSALSLGMLFSFAFVSAAPVLATSS: the AmyQ secretion efficiency turned out to be 2.03. Next, MNLRKILLSSALSLGMLKRKAPVLATSS: 7.26; MNLRKILLSSALSLGMLPSAAPVLATSS: 2.71; MNLRKILLSSALSLGMLTLFFLSAVTVSAAPVLATSS: 1.71. Take MNLRKILLSSALSLGMLVSAAPALATSS: the AmyQ secretion efficiency is 2.26. The result for MNLRKILLSSALSLGMLVSAAPCLATSS reads 2.03.

Sequence MNLRKILLSSALSLGMLVSAAPELATSS showed an AmyQ secretion efficiency of 3.72.

MNLRKILLSSALSLGMLVSAAPFLATSS: the AmyQ secretion efficiency worked out at 6.67.

Regarding MNLRKILLSSALSLGMLVSAAPGLATSS, the AmyQ secretion efficiency came out at 3.12. The result for MNLRKILLSSALSLGMLVSAAPLLATSS reads 4.04. The sequence MNLRKILLSSALSLGMLVSAAPQLATSS had an AmyQ secretion efficiency of 4.11. The result for MNLRKILLSSALSLGMLVSAAPTLATSS reads 2.34; that for MNLRKILLSSALSLGMLVSAAPVLARKR, 5.51; that for MNLRKILLSSALSLGMLVSAAPVLATEE, 1.83.

As for MNLRKILLSSALSLGMLVSAAPVLATSE, the AmyQ secretion efficiency turned out to be 1.92. As to MNLRKILLSSALSLGMLVSAAPVLDTSS, the AmyQ secretion efficiency is 6.16. Next, MNLRKILLSSALSLGMLVSAAPVLETSS: 7.05; MNLRKILLSSALSLGMLVSAAPVLGTSS: 4.45; MNLRKILLSSALSLGMLVSAAPVLHTSS: 6.17.

In turn, MNLRKILLSSALSLGMLVSAAPVLLTSS registered an AmyQ secretion efficiency of 7.26. The result for MNLRKILLSSALSLGMLVSAAPVLMTSS reads 4.51. As to MNLRKILLSSALSLGMLVSAAPVLNTSS, the AmyQ secretion efficiency turned out to be 5.87. Next, MNLRKILLSSALSLGMLVSAAPVLQTSS: 5.33; MNLRKILLSSALSLGMLVSAAPVLSTSS: 4.72.

Consider MNLRKILLSSALSLGMLVSAAPVLVTSS, for which the AmyQ secretion efficiency came to 6.87. Next, MNLRKILLSSALSLGMLVSAAPVLWTSS: 6.71. In turn, MNLRKILLSSALSLGMLVSAAPVLYTSS yielded an AmyQ secretion efficiency of 7.31. Next, MNLRKILLSSALSLGMLVSAAPWLATSS: 6.1.
